{
  "source": "patent US20230365703A1",
  "about": "(SHANGHAI LYN CREST ENTERPRISE MANAGEMENT, published 2023)",
  "binders": {"B1": {"name": "Anti-GPC3 monoclonal antibody codrituzumab (antibody, human IgG1, kappa, V domains shown)", "VH": "QVQLVQSGAEVKKPGASVKVSCKASGYTFTDYEMHWVRQAPGQGLEWMGALDPKTGDTAYSQKFKGRVTLTADKSTSTAYMELSSLTSEDTAVYYCTRFYSYTYWGQGTLVTVSS", "VL": "DVVMTQSPLSLPVTPGEPASISCRSSQSLVHSNRNTYLHWYLQKPGQSPQLLIYKVSNRFSGVPDRFSGSGSGTDFTLKISRVEAEDVGVYYCSQNTHVPPTFGQGTKLEIKR", "notes": "also called GC33; anti-GPC3 mAb"}, "B2": {"name": "LCB-018 (bispecific antibody)", "heavy": "not shown", "chain 1": "not shown", "chain 2": "WELKKDVYVVELDWYPDAPGEMVVLTCDTPEEDGITWTLDQSSEVLGSGKTLTIQVKEFGDAGQYTCHKGGEVLSHSLLLLHKKEDGIWSTDILKDQKEPKNKTFLRCEAKNYSGRFTCWWLTTISTDLTFSVKSSRGSSDPQGVTCGAATLSAERVRGDNKEYEYSVECQEDSACPAAEESLPIEVMVDAVHKLKYENYTSSFFIRDIIKPDPPKNLQLKPLKNSRQVEVSWEYPDTWSTPHSYFSLTFCVQVQGKSKREKKDRVFTDKTSATVICRKNASISVRAQDRYYSSSWSEWASVPCS"}, "B3": {"name": "Anti-CD38 monoclonal antibody Felzartamab (antibody, human IgG1, lambda, V domains shown)", "VH": "QVQLVESGGGLVQPGGSLRLSCAASGFTFSSYYMNWVRQAPGKGLEWVSGISGDPSNTYYADSVKGRFTISRDNSKNTLYLQMNSLRAEDTAVYYCARDLPLVYTGFAYWGQGTLVTVSS", "VL": "DIELTQPPSVSVAPGQTARISCSGDNLRHYYVYWYQQKPGQAPVLVIYGDSKRPSGIPERFSGSNSGNTATLTISGTQAEDEADYYCQTYTGGASLVFGGGTKLTVLG"}},
  "key": {"[1]": {"molecular_target": "T1, GPC3 on liver cancer cells (HepG2, HuH-7) (UniProt P51654 25-554)", "T1 construct": "whole, on cells; also called GPC3 antigen", "experiment": "flow cytometry on HepG2 cells, Alexa Fluor 488 anti-human IgG; table under the plot prints no unit, unit taken from the axis Con.(nM)"}, "[2]": {"molecular_target": "T2, IL12 receptors on H_IL12 Reporter 293 cells (UniProt P42701 24-662; Q99665 24-862, limits assumed)", "T2 sequence (Q99665 24-862 limits assumed, chain 2 of 2, other chains not shown)": "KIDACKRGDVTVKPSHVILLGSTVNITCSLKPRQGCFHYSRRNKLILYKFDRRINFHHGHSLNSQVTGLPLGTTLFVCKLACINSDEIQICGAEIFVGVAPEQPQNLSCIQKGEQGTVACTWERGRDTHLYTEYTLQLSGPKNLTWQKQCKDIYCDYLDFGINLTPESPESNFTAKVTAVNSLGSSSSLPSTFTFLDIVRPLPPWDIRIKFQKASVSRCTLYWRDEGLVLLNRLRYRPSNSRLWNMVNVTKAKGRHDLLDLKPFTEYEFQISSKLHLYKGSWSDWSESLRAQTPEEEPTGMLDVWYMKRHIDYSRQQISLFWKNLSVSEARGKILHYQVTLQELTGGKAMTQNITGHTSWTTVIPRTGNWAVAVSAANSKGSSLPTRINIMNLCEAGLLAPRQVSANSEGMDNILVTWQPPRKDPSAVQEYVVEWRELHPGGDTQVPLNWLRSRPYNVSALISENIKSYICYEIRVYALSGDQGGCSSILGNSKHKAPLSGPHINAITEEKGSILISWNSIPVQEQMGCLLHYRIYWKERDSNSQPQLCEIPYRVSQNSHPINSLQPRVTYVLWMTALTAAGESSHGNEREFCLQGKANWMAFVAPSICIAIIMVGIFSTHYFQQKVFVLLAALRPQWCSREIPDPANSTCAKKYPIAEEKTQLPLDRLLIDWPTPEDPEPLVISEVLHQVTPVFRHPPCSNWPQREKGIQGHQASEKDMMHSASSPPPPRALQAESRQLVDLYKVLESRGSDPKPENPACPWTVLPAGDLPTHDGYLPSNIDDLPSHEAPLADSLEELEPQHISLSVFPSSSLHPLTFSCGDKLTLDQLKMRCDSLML", "experiment": "cell-based or functional assay"}, "[3]": {"molecular_target": "T2, IL12 receptors on H_IL12 Reporter 293 …", "experiment": "cell-based or functional assay", "remark": "listed apart in the source"}, "[4]": {"molecular_target": "CD47 on CD47-transfected CHO-K1 cells (Homo sapiens (Human), UniProt Q08722 19-323)", "experiment": "flow cytometry on CD47-transfected CHO-K1 cells (CD38-/CD47+), anti-human IgG-FITC detection"}},
  "data": [
    {"binder": "B1", "values": [
      {"measurement": "EC50", "setting": "[1]", "result": 0.529, "unit": "nM"}
    ]},
    {"binder": "B2", "values": [
      {"measurement": "EC50 on H_IL12 Reporter 293 cells (One-Glo signal; called binding affinity by the filing)", "setting": "[2]", "result": 30, "unit": "nM"},
      {"measurement": "fold weaker than the IL12A and IL12B complex on H_IL12 Reporter 293 cells", "setting": "[2]", "result": "~500", "unit": "times"},
      {"measurement": "EC50 (read off the curve), H_IL12 Reporter 293 cells, One-Glo signal, LCB-018 with IL12B after isotype pre-incubation (TIGIT free)", "setting": "[3]", "result": "~4", "unit": "nM"},
      {"measurement": "EC50 (read off the curve), H_IL12 Reporter 293 cells, One-Glo signal, LCB-018 with IL12B after pre-block of TIGIT with 200 nM Tiragolumab", "setting": "[3]", "result": "~10", "unit": "nM"}
    ]},
    {"binder": "B3", "values": [
      {"measurement": "binding result", "setting": "[4]", "result": "no binding"}
    ]}
  ]
}
